The labels stand for the following.
B1: suPAR_DB04_E12 (scFv, V domains shown)
VH: QVQLVQSGAEVKKPGASVKVSCKASGYTFTTYYMHWVRQAPGQGLEWMGWIDPENGSTIYDQKFQGRVTMTRDTSTSTVYMELSSLRSEDTAVYYCARGYDVDWFVYWGQGTLVTVSS
VL: DIQMTQSPSSLSASVGDRVTITCSASQSVSYMYWYQQKPGKAPKLLIYRTSNLASGVPSRFSGSGSGTDFTLTISSLQPEDFATYYCQQYHSYPPTFGGGTKVEIK
notes: scFv clone from phage display
B2: suPAR_DB04_E05 (scFv, V domains shown)
VH: QVQLVQSGAEVKKPGASVKVSCKASGFNIKDYYIHWVRQAPGQGLEWVGWIDPHSGGTNYAQKFQGRVTMTRDTSTSTVYMELSSLRSEDTAVYYCARGYDVDWFVYWGQGTLVTVSS
VL: B1 VL with S26R, Q27S
notes: scFv clone from phage display
B3: suPAR_DB04_F07 (scFv, V domains shown)
VH: B1 VH with T31G, M34V, P53H, S57N
VL: B1 VL with S26R, Q27S
notes: scFv clone from phage display
B4: suPAR_DB04_G03 (scFv, V domains shown)
VH: B1 VH with T31G, P53H, S57N
VL: B1 VL with Q27S, A54Q
notes: scFv clone from phage display
B5: suPAR_DB04_F11 (scFv, V domains shown)
VH: B1 VH with T31S, Y32H, P53H, N55G, S57N, I59S, D61A
VL: B1 VL with S26R, Q27S
notes: scFv clone from phage display
B6: suPAR_DB04_F09 (scFv, V domains shown)
VH: B1 VH with T31N, M34F, P53H, S57N, I59S
VL: B1 VL with S26R, Q27S
notes: scFv clone from phage display
B7: suPAR_DB04_G02 (scFv, V domains shown)
VH: B1 VH with T31N, P53H, S57N
VL: B1 VL with S26R, Q27S, N52S
notes: scFv clone from phage display
B8: suPAR_DB04_G04 (scFv, V domains shown)
VH: B1 VH with T28S, T31S, M34I, P53H, D61A
VL: B1 VL
notes: scFv clone from phage display
B9: suPAR_DB04_G08 (scFv, V domains shown)
VH: B1 VH with Y27H, F29L, T31G, M34V, P53H, S57N
VL: B1 VL with S26R, Q27S
notes: scFv clone from phage display
B10: suPAR_DB04_F05 (scFv, V domains shown)
VH: B1 VH with T30S, T31D, M34V, P53H, N55G, I59S, D61A
VL: B1 VL with S26R, V29I
notes: scFv clone from phage display
B11: suPAR_DB04_F06 (scFv, V domains shown)
VH: B1 VH with T31G, P53H, S57N, I59S, D61A
VL: B1 VL with S26R, V29I
notes: scFv clone from phage display
B12: suPAR_DB04_F03 (scFv, V domains shown)
VH: B2 VH with F27Y, N28T, V48M, H54R, G57D, A61G, Q62K, K63N
VL: B1 VL with S26R, Q27S
notes: scFv clone from phage display
B13: suPAR_DB04_H01 (scFv, V domains shown)
VH: B1 VH with T30I, T31G, Y32S, M34V, P53H, S57N
VL: B1 VL with S26R, Q27S, N52S
notes: scFv clone from phage display
B14: suPAR_DB04_G11 (scFv, V domains shown)
VH: B2 VH with N28T, I29F, V48M, H54D
VL: B1 VL with S26R
notes: scFv clone from phage display
B15: suPAR_DB04_F08 (scFv, V domains shown)
VH: B1 VH with Y27G, T31S, P53H, E54S, I59S, D61A, K63E
VL: B1 VL with S26R, Q27S
notes: scFv clone from phage display
B16: suPAR_DB04_G12 (scFv, V domains shown)
VH: B1 VH with T30S, T31D, P53H, S57N, I59S, D61A
VL: B1 VL with S26R, Q27S
notes: scFv clone from phage display
B17: suPAR_DB04_F04 (scFv, V domains shown)
VH: B1 VH with T31S, P53H, S57N, I59S
VL: B1 VL with S26R, Q27S
notes: scFv clone from phage display
B18: suPAR_DB04_G06 (scFv, V domains shown)
VH: B1 VH with Y27D, T31S, M34V, P53H, S57N
VL: B1 VL
notes: scFv clone from phage display
B19: suPAR_DB04_G10 (scFv, V domains shown)
VH: B1 VH with T31G, P53H, S57N, Y100N
VL: B1 VL with S24R, Q27S
notes: scFv clone from phage display
B20: suPAR_DB04_F10 (scFv, V domains shown)
VH: B1 VH with T31D, P53H, E54S, N55G, S57N, D61A
VL: B1 VL with S26R, Q27S
notes: scFv clone from phage display
B21: suPAR_DB04_G09 (scFv, V domains shown)
VH: B1 VH with Y27D, F29S, P53H, S57N
VL: B1 VL with S26K, Q27S
notes: scFv clone from phage display
B22: suPAR_DB04_F01 (scFv, V domains shown)
VH: B1 VH with T31S, P53H, N55G, S57N, D61A, Y100D
VL: B1 VL
notes: scFv clone from phage display
B23: suPAR_DB04_G07 (scFv, V domains shown)
VH: B1 VH with Y27F, T28S, S57N, D61A
VL: B1 VL with S26R, Q27S
notes: scFv clone from phage display
B24: suPAR_DB04_G05 (scFv, V domains shown)
VH: B1 VH with T28N, F29I, T31D, M34I
VL: B1 VL with S26R, Q27S, A54Q
notes: scFv clone from phage display

We go through 24 molecules from US20250215104A1 (WALDEN BIOSCIENCES, published 2025).

Positions count from the first letter of the chain named.

T1 sequence (Q03405 23-303 limits assumed): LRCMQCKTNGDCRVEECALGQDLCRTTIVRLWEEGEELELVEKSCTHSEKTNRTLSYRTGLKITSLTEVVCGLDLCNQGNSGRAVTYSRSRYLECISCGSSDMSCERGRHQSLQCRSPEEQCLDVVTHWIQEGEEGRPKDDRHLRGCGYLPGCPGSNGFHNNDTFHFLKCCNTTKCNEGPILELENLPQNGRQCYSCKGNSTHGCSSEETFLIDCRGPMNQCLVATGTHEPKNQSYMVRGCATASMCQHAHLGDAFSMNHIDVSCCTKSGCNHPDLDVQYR

The first assay has as its target T1, human soluble urokinase plasminogen activator receptor (hsuPAR) (human, UniProt Q03405 23-303, limits assumed).
T1 construct: also called human suPAR; rhuPAR-His
The experiment in a line: off-rate screen of scFv clones (kdis), Octet BLI. (In general: Biolayer interferometry detects binding as a change in optical thickness at a sensor tip.)
Usually koff stands for a measure of how fast the partners let go of each other. Read a low koff as slow dissociation. B1 returned a koff of 0.00336 s⁻¹.

Regarding B2, the koff was 0.00359 s⁻¹.

The molecule B3 gave a koff of 0.00269 s⁻¹.

B4 came in with a koff of 0.00119 s⁻¹.

Consider B5, for which the koff is 0.0051 s⁻¹.

B6 had a koff of 0.00462 s⁻¹.

B7 displayed a koff of 0.00185 s⁻¹.

Turning to B8, the koff is 0.000751 s⁻¹.

B9 displayed a koff of 0.00317 s⁻¹.

B10 showed a koff of 0.00405 s⁻¹.

Take B11: the koff was determined as 0.00279 s⁻¹.

Regarding B12, the koff was determined as 0.00375 s⁻¹.

As to B13, the koff was determined as 0.00127 s⁻¹.

On to B14, for which the koff was 0.00327 s⁻¹.

For the molecule B15, the koff stood at 0.00261 s⁻¹.

With B16, the koff worked out at 0.00528 s⁻¹.

Molecule B17 yielded a koff of 0.00394 s⁻¹.

With B18, the koff is 0.0027 s⁻¹.

Regarding B19, the koff was determined as 0.00322 s⁻¹.

The molecule B20 yielded a koff of 0.00412 s⁻¹.

Consider B21, for which the koff worked out at 0.00359 s⁻¹.

As to B22, the koff was determined as 0.00267 s⁻¹.

Turning to B23, the koff was found to be 0.00424 s⁻¹.

B24 showed a koff of 0.00364 s⁻¹.

For another assay, the target named is T2, cynomolgus soluble urokinase plasminogen activator receptor (cynomolgus suPAR) (cynomolgus, UniProt Q9GK78 23-303, limits assumed).
T2 construct: also called cynomolgus uPAR; cynoPLAUR-His
T2 sequence (Q9GK78 23-303 limits assumed): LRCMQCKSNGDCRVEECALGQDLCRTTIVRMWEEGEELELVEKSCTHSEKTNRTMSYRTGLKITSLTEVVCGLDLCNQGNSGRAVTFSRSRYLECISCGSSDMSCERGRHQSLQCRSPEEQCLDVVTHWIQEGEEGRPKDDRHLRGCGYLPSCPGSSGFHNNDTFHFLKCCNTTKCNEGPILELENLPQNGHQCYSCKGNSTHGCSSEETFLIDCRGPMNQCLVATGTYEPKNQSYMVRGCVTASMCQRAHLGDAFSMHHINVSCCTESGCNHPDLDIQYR
The experiment in a line: off-rate screen of scFv clones (kdis), Octet BLI.
For the molecule B1, the koff came out at 8.15e-05 s⁻¹.

The molecule B2 showed a koff of 3.92e-07 s⁻¹.

B3 yielded a koff of 3.33e-05 s⁻¹.

Molecule B4 gave a koff of 0.000747 s⁻¹.

As to B5, the koff amounted to 0.000121 s⁻¹.

B6 came in with a koff of 0.000122 s⁻¹.

With B7, the koff stood at 0.000388 s⁻¹.

B8 yielded a koff of 0.000342 s⁻¹.

In turn, B9 came in with a koff of 0.000203 s⁻¹.

In the case of B10, the koff was found to be 0.000278 s⁻¹.

B11 came in with a koff of 0.000195 s⁻¹.

Turning to B12, the koff stood at 0.000863 s⁻¹.

As for B13, the koff is 0.00104 s⁻¹.

Molecule B14 came in with a koff of 0.00021 s⁻¹.

Turning to B15, the koff amounted to 4.31e-05 s⁻¹.

As to B16, the koff was 8.1e-05 s⁻¹.

With B17, the koff was 0.000174 s⁻¹.

B18 had a koff of 0.000208 s⁻¹.

In the case of B19, the koff was 0.000462 s⁻¹.

B20: the koff came out at 0.000274 s⁻¹.

As for B21, the koff came out at 0.000647 s⁻¹.

B22 yielded a koff of 4.88e-07 s⁻¹.

As to B23, the koff turned out to be 5.96e-07 s⁻¹.

Turning to B24, the koff came to 8.25e-05 s⁻¹.
